The values below come from PMC9814837, “Design of a gold clustering site in an engineered apo-ferritin cage” (Communications Chemistry, 2022).

The data set concerns the molecule itself. In words: crystal structure; hanging-drop vapor diffusion, 0.5-1 M (NH4)2SO4 and 10-20 mM CdSO4, 20 °C; data at 100 K; space group F432, cage rebuilt by symmetry; apo protein and composites after reaction with 10-400 equiv. Au(I) precursor.

B1: apo-R168H/L169C-rHLFr (recombinant L-chain ferritin from horse liver, R168H/L169C mutant) (natural protein, UniProt P02791 1-175, looked up)
chain: MSSQIRQNYSTEVEAAVNRLVNLYLRASYTYLSLGFYFDRDDVALEGVCHFFRELAEEKREGAERLLKMQNQRGGRALFQDLQKPSQDEWGTTLDAMKAAIVLEKSLNQALLDLHALGSAQADPHLCDFLESHFLDEEVKLIKKMGDHLTNIQRLVGSQAGLGEYLFEHCTLKHD
notes: ferritin L-chain, horse liver, recombinant (rHLFr); last residue named is Asp174; Crystallised apo and after reaction with 10-400 equiv. of chloro(dimethylsulfide)gold(I); also called Au(10 equiv.)-apo-R168H/L169C-rHLFr; Au(50 equiv.)-apo-R168H/L169C-rHLFr; source: E. coli (NovaBlue, vector pMK2), purified (heat treatment, Q Sepharose, S-300); copies: 24
As to B1, the binding result is on record as “binds”.
